According to publication doi:10.1101/2022.06.09.495453, “Molecular insights into human Shieldin complex assembly and recruitment to DSBs” (bioRxiv, 2022):

Experiments:
REV7^WT = target: T1, REV7^WT (human, UniProt Q9UI95 1-211); assay: SPR; SHLD3^1-62 or REV3^1871-2014 immobilised on an SCR HC30M chip by EDC-NHS coupling; REV7^WT or REV7^R124A injected in two-fold dilutions; buffer B with 0.05% Tween 20; KD estimated from plateau values at the end of the dissociation phase; settings: both partners purified
T1 construct: REV7 (MAD2L2), human, HORMA domain protein; 211 residues printed; wild type; also called WT-REV7; MAD2L2; source: E. coli LOBSTR, purified (metal chelating column, tag cleavage, SEC)

REV7^R124A [1] = target: REV7^R124A (human, UniProt Q9UI95 1-211, R124A); assay: SPR
REV7^R124A [2] = target: T2, REV7^R124A (human, UniProt Q9UI95 1-211, R124A); assay: SPR; SHLD3^1-62 or REV3^1871-2014 immobilised on an SCR HC30M chip by EDC-NHS coupling; REV7^WT or REV7^R124A injected in two-fold dilutions; buffer B with 0.05% Tween 20; KD estimated from plateau values at the end of the dissociation phase; settings: both partners purified
T2 construct: REV7 (MAD2L2), human; 211 residues printed; R124A; also called R124A-REV7; source: E. coli LOBSTR, purified (metal chelating column, tag cleavage, SEC)

MBP-REV7^WT = target: T3, MBP-REV7^WT (human, UniProt Q9UI95 1-211); assay: pull-down; MBP pull-down of GST-SHLD3^1-83 with MBP-REV7^WT or MBP-REV7^core; settings: both partners purified
T3 construct: REV7 (MAD2L2), human; 211 residues printed; wild type; source: E. coli LOBSTR, purified; not shown: hexahistidine-MBP, N-terminal, kept
T3 sequence (Q9UI95 whole entry): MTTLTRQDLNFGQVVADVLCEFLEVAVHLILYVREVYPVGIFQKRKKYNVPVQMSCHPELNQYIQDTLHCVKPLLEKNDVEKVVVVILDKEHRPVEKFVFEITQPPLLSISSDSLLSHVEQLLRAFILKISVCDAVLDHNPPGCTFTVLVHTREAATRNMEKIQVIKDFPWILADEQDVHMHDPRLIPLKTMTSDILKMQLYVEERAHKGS

T1 sequence (Q9UI95 whole entry, the tested form may be a part): as the sequence (Q9UI95 whole entry) above

B1: REV3^1871-2014 (domain or fragment, human, UniProt O60673 1871-2014, looked up)
chain: TPRTANILKPLMSPPSREEIMATLLDHDLSETIYQEPFCSNPSDVPEKPREIGGRLLMVETRLANDLAEFEGDFSLEGLRLWKTAFSAMTQNPRPGSPLRSGQGVVNKGSSNSPKMVEDKKIVIMPCKCAPSRQLVQVWLQAKE
notes: REV3, human, residues 1871-2014 (holds RBM1 1875-1896 and RBM2 1991-2012); The general protocol cleaves the tag; source: E. coli LOBSTR, purified
**Q.** Does B1 bind (REV7^WT)?
**A.** Result: binds

B2: SHLD3^1-62 (domain or fragment, human, UniProt Q6ZNX1 1-62, looked up)
chain: MTTEVILHYRPCESDPTQLPKIAEKAIQDFPTRPLSRFIPWFPYDGSKLPLRPKRSPPVISE
notes: SHLD3, human, residues 1-62; The general protocol cleaves the tag; also called SHLD3^RBM; source: E. coli LOBSTR, purified
**Q.** Which Kd (REV7^R124A [1]) does the source give for B2 here?
**A.** The Kd was ~67 nM.

**Q.** And the Kd (REV7^WT)?
**A.** The Kd was ~38 nM.

**Q.** Does B2 bind (REV7^R124A [2])?
**A.** Result: binds

B3: GST-SHLD3^1-83 (domain or fragment, human, UniProt Q6ZNX1 1-83, looked up)
chain: MTTEVILHYRPCESDPTQLPKIAEKAIQDFPTRPLSRFIPWFPYDGSKLPLRPKRSPPVISEEAAEDVKQYLTISEHDAKSHS
notes: SHLD3, human, residues 1-83; also called SHLD3^RBM; source: E. coli LOBSTR, purified; not shown: GST, N-terminal, kept
**Q.** Does B3 bind (MBP-REV7^WT)?
**A.** Result: binds
